Among the data in US20240343799A1 are Kd values, retold here.

The labels stand for the following.
B1: polmab (antibody, human IgG1, kappa, V domains shown)
VH: EVQLVESGGGLVQPGGSLRLSCAASGYTFSSYWIEWVRQAPGKGLEWIGEILPGGGDTNYNEIFKGRATFSADTSKNTAYLQMNSLRAEDTAVYYCTRRVPIRLDYWGQGTLVTVSS
VL: DIQLTQSPSSLSASVGDRVTITCKASQSVDYEGDSFLNWYQQKPGKAPKLLIYAASNLESGVPSRFSGSGSGTDFTLTISSLQPEDFATYYCQQSNEDPLTFGQGTKVEIKR
B2: A7v14b (antibody, V domains shown)
VH: EVQLVQSGAEVKKPGASVKVSCKASGYTFTTYYMNWVRQAPGQGLEWIGMIDPSDSETHYNQKFQGRATLTVDTSTSTAYLELSSLRSEDTAVYYCSRSLAFWGQGTLVTVSS
VL: DIVMTQTPLSLPVTPGQPASISCKSSQSLLDSDGKTYLNWLLQKPGQSPQSLIYLVSKLDSGVPDRFSGSGSGTDFTLKISRVEAEDVGVYYCWQGTHFPQTFGQGTKVEIK
B3: hz11G10.9.p1 (antibody, V domains shown)
VH: QVQLVQSGAEVKKPGASVKVSCKASGYTFTDYWVNWVRQAPGQGLEWMGMIDPSDSETHYNQMFNDRVTMTVDTSTSTVYMELSSLRSEDTAVYYCTRSNYYWGQGTLVTVSS
VL: B2 VL with P12S, D33E, Q101L, Q105G
B4: hz34F1.14 (antibody, V domains shown)
VH: QVQLVQSGAEVKKPGASVKVSCKASGYSFTTYWMNWVRQAPGQGLTWMGMIDPSDSETHYNHLFKDRVTMTVDKSTSTAYMELSSLRSEDTAVYYCTRAIGYWGQGTLVTVSS
VL: DVVMTQSPLSLPVTLGQPASISCKSSLSLLDSEGKTYLNWFQQRPGQSPRPLISLVSKLDSGVPDRFSGSGSGTDFTLKISRVEAEDVGVYYCWQGTHFPLTFGGGTKVEIK
B5: hz38D9B3.11 (antibody, V domains shown)
VH: QVQLVQSGSELKKPGASVKVSCKASGYTFTDYSMHWVRQAPGQGLEWMGWINTETGEPSYADDFKGRFVFSLDTSVSTAYLQISSLKAEDTAVYYCYYGPYWGQGTLVTVSS
VL: EIVLTQSPATLSLSPGERATLSCKASQSVDHDVDSYMDWYQQKPGQAPRLLIYSASNLESGIPARFSGSGSGTDFTLTISSLEPEDFAVYYCQQINEYPYTFGGGTKVEIK

Residue numbers refer to the chain shown, from its start.

The target in the first experiment is huCD79b-N (human) (UniProt P40259). Description: BLI (ForteBio).
For B1, the Kd is 3.1 nM.

The target is the same in the next experiment. Description: BLI (ForteBio), antibody loaded on sensor, antigen in solution.
Regarding B1, the Kd was determined as 3.22 nM.
B2 gave a Kd of 8.56 nM.
The molecule B3 yielded a Kd of 3.4 nM.
In turn, B4 registered a Kd of 8.07 nM.
B5 had a Kd of 0.275 nM.
